The data set concerns the molecule itself. The data set can be described thus: crystal structure; nucleotide-free BchL crystallised anaerobically at 15 °C by vapor diffusion; 100 μM dimeric BchL in 100 mM Hepes pH 7.5, 150 mM NaCl, 10% glycerol, 1.7 mM dithionite; well 0.6 M NaCl, 0.1 M MES:NaOH pH 6.5, 20% PEG 4000; 2.6 Å.

B1: BchL (L-protein of dark-operative protochlorophyllide oxidoreductase, DPOR) from Rhodobacter sphaeroides (enzyme, UniProt Q9RFD6 1-297, looked up)
chain: MSPKDLTIPTGADGEGSVQVHLDEADKITGAKVFAVYGKGGIGKSTTSSNLSAAFSILGKRVLQIGCDPKHDSTFTLTGSLVPTVIDVLKDVDFHPEELRPEDFVFEGFNGVMCVEAGGPPAGTGCGGYVVGQTVKLLKQHHLLDDTDVVIFDVLGDVVCGGFAAPLQHADQAVVVTANDFDSIYAMNRIIAAVQAKSKNYKVRLAGCVANRSRATDEVDRFCKETNFRRLAHMPDLDAIRRSRLKKKTLFEMDEDQDVLAARAEYIRLAESLWRGLDPIDPHSLPDRDIFELLGFD
notes: BchL, Rhodobacter sphaeroides; coding region PCR-amplified from genomic DNA and cloned into pRSF-Duet 1 or pET-Duet 1; a TEV protease site follows the His tag; Homodimer with one [4Fe-4S] cluster at the dimer interface, ligated by two cysteines from each subunit; also called WT BchL
As for B1, the binding result is “binds”.

(Values after paper PMC7948495, “The flexible N-terminus of BchL autoinhibits activity through interaction with its [4Fe-4S] cluster and released upon ATP binding” (The Journal of Biological Chemistry, 2020).)
